Data reported in PMC5344418, “Directed evolution of a soluble human DR3 receptor for the inhibition of TL1A induced cytokine secretion” (PLoS ONE, 2017).
Blank lines part the entries; values can stand above or below the molecule they belong to.

Columns and labels:
Test in all cases: SPR; ProteOn XPR36; DR3 variants (5 ug, acetate buffer pH 5.5) immobilised on a GLC chip, BSA as reference; TL1A run at 100, 50, 25, 12.5 and 6.25 nM, 30 ul/min, 300 s, 10 min dissociation; PBS with 2 mM DTT; Langmuir single binding site model
[1] = target: DR3 variant H3 (DR3 extracellular domain-Fc) (human) (UniProt Q93038)
[2] = target: DR3 variant O6 (DR3 extracellular domain-Fc) (human) (UniProt Q93038)
[3] = target: T1, TNF-like 1A (TL1A) (UniProt O95150 72-251); conditions: both partners purified
T1 construct: TL1A (TNF-like 1A), the cytokine run over immobilised DR3 variants in SPR and added to cells; also called TL1A cytokine
T1 sequence (looked up): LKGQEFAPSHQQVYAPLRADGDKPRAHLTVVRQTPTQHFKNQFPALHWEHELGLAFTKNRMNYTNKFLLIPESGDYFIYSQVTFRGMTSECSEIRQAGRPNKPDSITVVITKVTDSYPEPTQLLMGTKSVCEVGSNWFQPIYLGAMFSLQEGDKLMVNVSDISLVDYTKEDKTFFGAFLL

Kd [1]: 8.26 nM
koff [1]: 0.000351 s⁻¹
kon [1]: 42600 M⁻¹ s⁻¹
Kd [2]: 9.83 nM
koff [2]: 0.000357 s⁻¹
kon [2]: 36300 M⁻¹ s⁻¹
Molecule: TNF-like 1A (TL1A) (from UniProt O95150 72-251) (ligand)

Kd [3]: 44.9 nM
koff [3]: 0.00072 s⁻¹
kon [3]: 16000 M⁻¹ s⁻¹
B1: native DR3-Fc (human DR3 extracellular domain fused with human IgG1 Fc) (Fc fusion, UniProt Q93038 25-199, looked up)
chain: QGGTRSPRCDCAGDFHKKIGLFCCRGCPAGHYLKAPCTEPCGNSTCLVCPQDTFLAWENHHNSECARCQACDEQASQVALENCSAVADTRCGCKPGWFVECQVSQCVSSSPFYCQPCLDCGALHRHTRLLCSRRDTDCGTCLPGFYEHGDGCVSCPTSTLGSCPERCAAVCGWRQ
modifications: N-linked glycosylation (shown by Endo-H cleavage)
notes: amplified from an EST cDNA clone (Open Biosystems); pFUSE vector (Invivogen); also called WT; soluble native DR3; source: HEK293T, transfected, conditioned medium (ELISA screen); 293F (HEK293F), transfected, purified (MonoQ, SP, butyl HIC); not shown: Fc (human IgG1), C-terminal, kept
